In patent publication US20220372155A1 (LYVGEN BIOPHARMA, published 2022):

How the values were obtained:
[1] = target: T1, human CD40 expressed on CHO cells (human, UniProt P25942 21-277); test: FACS, CHO cells
T1 construct: whole, on cells; also used for the reporter cells over-expressing human CD40; also called cellular CD40; CHO-CD40 cells

[2] = target: T2, human PD-L1 expressed on CHO cells (human, UniProt Q9NZQ7 19-290); test: FACS, CHO cells
T2 construct: whole, on cells; also used for human PD-L1 on Raji cells in the reporter assay; also called cell surface PD-L1; Raji-PD-L1 cells
T2 sequence (Q9NZQ7 19-290): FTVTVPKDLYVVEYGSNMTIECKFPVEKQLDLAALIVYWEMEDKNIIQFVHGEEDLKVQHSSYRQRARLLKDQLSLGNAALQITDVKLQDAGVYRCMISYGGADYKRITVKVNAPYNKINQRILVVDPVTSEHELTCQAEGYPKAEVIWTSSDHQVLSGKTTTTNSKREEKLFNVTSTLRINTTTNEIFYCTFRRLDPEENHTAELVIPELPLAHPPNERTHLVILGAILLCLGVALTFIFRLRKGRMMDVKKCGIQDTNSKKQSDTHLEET

[3] = target: T3, Ly090 (human CD40 ECD protein with His tag) (human, UniProt P25942 21-193); test: bridging ELISA, coated CD40 ECD-His, soluble PD-L1 ECD-mFc
T3 construct: extracellular domain; also called human CD40 ECD protein (His tag); recombinant human CD40; not shown: His tag
T3 sequence (P25942 21-193): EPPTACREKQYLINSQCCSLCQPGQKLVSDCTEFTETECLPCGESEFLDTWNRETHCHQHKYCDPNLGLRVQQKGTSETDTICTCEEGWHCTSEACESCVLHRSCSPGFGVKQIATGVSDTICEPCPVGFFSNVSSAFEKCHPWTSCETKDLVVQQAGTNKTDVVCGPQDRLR

[4] = target: T4, Human PD-L1 ECD protein (mouse IgG2a Fc tag) (human, UniProt Q9NZQ7 19-238); test: as above
T4 construct: extracellular domain; also called recombinant human PD-L1; not shown: mouse IgG2a Fc tag
T4 sequence (Q9NZQ7 19-238): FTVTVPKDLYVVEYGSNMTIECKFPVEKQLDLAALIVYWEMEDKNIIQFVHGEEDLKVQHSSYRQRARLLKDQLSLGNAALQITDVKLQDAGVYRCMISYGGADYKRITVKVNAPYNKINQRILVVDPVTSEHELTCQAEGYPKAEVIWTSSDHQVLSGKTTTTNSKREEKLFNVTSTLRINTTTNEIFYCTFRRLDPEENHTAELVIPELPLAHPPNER

T1 sequence (P25942 21-277): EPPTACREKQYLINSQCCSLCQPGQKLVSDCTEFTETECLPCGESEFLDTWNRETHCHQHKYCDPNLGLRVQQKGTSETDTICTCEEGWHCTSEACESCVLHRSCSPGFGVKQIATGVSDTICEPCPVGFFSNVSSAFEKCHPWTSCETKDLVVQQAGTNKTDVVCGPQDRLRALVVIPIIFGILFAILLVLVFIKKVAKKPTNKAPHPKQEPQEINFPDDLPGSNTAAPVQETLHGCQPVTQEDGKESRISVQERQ

binding result [1] | binding result [2] | binding result [3] | binding result [4] | Binder
binds | binds | binds | binds | Ly303 (bispecific antibody, human IgG1, kappa, Ly076 HC (IgG1 mutated Fc)-TM559 scFv VL-VH + Ly076 LC) heavy: QVQLVQSGAEVKKPGASVKVSCKASGYTFTDFWMSWVRQAPGQGLEWMGQIYPNTGTTHSNEKFKGRVTMTRDTSTSTVYMELSSLRSEDTAVYYCARSYHISTTPNWFAYWGQGTLVTVSSASTKGPSVFPLAPSSKSTSGGTAALGCLVKDYFPEPVTVSWNSGALTSGVHTFPAVLQSSGLYSLSSVVTVPSSSLGTQTYICNVNHKPSNTKVDKKVEPKSCDKTHTCPPCPAPELLGPSVFLFPPKPKDTLMISRTPEVTCVVVDVSHEDPEVKFNWYVDGVEVHNAKTKPREEQYNSTYRVVSVLTVLHQDWLNGKEYKCKVSNKALPAPIEKTISKAKGQPREPQVYTLPPSREEMTKNQVSLTCLVKGFYPSDIAVEWESNGQPENNYKTTPPVLDSDGSFFLYSKLTVDKSRWQQGNVFSCSVMHEALHNHYTQKSLSLSPGGGGGSGGGGSGGGGSGGGGSDIQMTQSPSSLSASVGDRVTITCLASEDISNDLAWYQQKPGKAPKLLIYFVDRLLDGVPSRFSGSGSGTDFTLTISSLQPEDFATYYCQQSYKYPPTFGQGTKLEIKGGGGSGGGGSGGGGSGGGGSEVQLVESGGGLVQPGGSLRLSCAASGFTFTNYGLHWVRQAPGKGLEWVSSISPSGGVTYYRDSVKGRFTISRDNSKNTLYLQMNSLRAEDTAVYYCAKPFLGWGGANWIAHWGQGTLVTVSS light: DIQMTQSPSSLSASVGDRVTITCKASQNVYKKLEWYQQKPGKVPKVLIYHTNILQTGVPSRFSGSGSGTDYTLTISSLQPEDVATYYCYQWNSGPTFGGGTKVEIKRTVAAPSVFIFPPSDEQLKSGTASVVCLLNNFYPREAKVQWKVDNALQSGNSQESVTEQDSKDSTYSLSSTLTLSKADYEKHKVYACEVTHQGLSSPVTKSFNRGEC
binds | binds | binds | binds | Ly340 (bispecific antibody, human IgG1, kappa, Ly076 HC (IgG1 mutated Fc)-TM559 scFv VH-VL + Ly076 LC) heavy: QVQLVQSGAEVKKPGASVKVSCKASGYTFTDFWMSWVRQAPGQGLEWMGQIYPNTGTTHSNEKFKGRVTMTRDTSTSTVYMELSSLRSEDTAVYYCARSYHISTTPNWFAYWGQGTLVTVSSASTKGPSVFPLAPSSKSTSGGTAALGCLVKDYFPEPVTVSWNSGALTSGVHTFPAVLQSSGLYSLSSVVTVPSSSLGTQTYICNVNHKPSNTKVDKKVEPKSCDKTHTCPPCPAPELLGPSVFLFPPKPKDTLMISRTPEVTCVVVDVSHEDPEVKFNWYVDGVEVHNAKTKPREEQYNSTYRVVSVLTVLHQDWLNGKEYKCKVSNKALPAPIEKTISKAKGQPREPQVYTLPPSREEMTKNQVSLTCLVKGFYPSDIAVEWESNGQPENNYKTTPPVLDSDGSFFLYSKLTVDKSRWQQGNVFSCSVMHEALHNHYTQKSLSLSPGGGGGSGGGGSGGGGSGGGGSEVQLVESGGGLVQPGGSLRLSCAASGFTFTNYGLHWVRQAPGKGLEWVSSISPSGGVTYYRDSVKGRFTISRDNSKNTLYLQMNSLRAEDTAVYYCAKPFLGWGGANWIAHWGQGTLVTVSSGGGGSGGGGSGGGGSGGGGSDIQMTQSPSSLSASVGDRVTITCLASEDISNDLAWYQQKPGKAPKLLIYFVDRLLDGVPSRFSGSGSGTDFTLTISSLQPEDFATYYCQQSYKYPPTFGQGTKLEIK light: DIQMTQSPSSLSASVGDRVTITCKASQNVYKKLEWYQQKPGKVPKVLIYHTNILQTGVPSRFSGSGSGTDYTLTISSLQPEDVATYYCYQWNSGPTFGGGTKVEIKRTVAAPSVFIFPPSDEQLKSGTASVVCLLNNFYPREAKVQWKVDNALQSGNSQESVTEQDSKDSTYSLSSTLTLSKADYEKHKVYACEVTHQGLSSPVTKSFNRGEC
binds | binds | binds | binds | Ly350 (bispecific antibody, human IgG1, kappa, Ly076 HC (IgG1 mutated Fc) + Ly076 LC-TM559 scFv VL-VH) heavy: QVQLVQSGAEVKKPGASVKVSCKASGYTFTDFWMSWVRQAPGQGLEWMGQIYPNTGTTHSNEKFKGRVTMTRDTSTSTVYMELSSLRSEDTAVYYCARSYHISTTPNWFAYWGQGTLVTVSSASTKGPSVFPLAPSSKSTSGGTAALGCLVKDYFPEPVTVSWNSGALTSGVHTFPAVLQSSGLYSLSSVVTVPSSSLGTQTYICNVNHKPSNTKVDKKVEPKSCDKTHTCPPCPAPELLGPSVFLFPPKPKDTLMISRTPEVTCVVVDVSHEDPEVKFNWYVDGVEVHNAKTKPREEQYNSTYRVVSVLTVLHQDWLNGKEYKCKVSNKALPAPIEKTISKAKGQPREPQVYTLPPSREEMTKNQVSLTCLVKGFYPSDIAVEWESNGQPENNYKTTPPVLDSDGSFFLYSKLTVDKSRWQQGNVFSCSVMHEALHNHYTQKSLSLSPG light: DIQMTQSPSSLSASVGDRVTITCKASQNVYKKLEWYQQKPGKVPKVLIYHTNILQTGVPSRFSGSGSGTDYTLTISSLQPEDVATYYCYQWNSGPTFGGGTKVEIKRTVAAPSVFIFPPSDEQLKSGTASVVCLLNNFYPREAKVQWKVDNALQSGNSQESVTEQDSKDSTYSLSSTLTLSKADYEKHKVYACEVTHQGLSSPVTKSFNRGECGGGGSGGGGSGGGGSGGGGSDIQMTQSPSSLSASVGDRVTITCLASEDISNDLAWYQQKPGKAPKLLIYFVDRLLDGVPSRFSGSGSGTDFTLTISSLQPEDFATYYCQQSYKYPPTFGQGTKLEIKGGGGSGGGGSGGGGSGGGGSEVQLVESGGGLVQPGGSLRLSCAASGFTFTNYGLHWVRQAPGKGLEWVSSISPSGGVTYYRDSVKGRFTISRDNSKNTLYLQMNSLRAEDTAVYYCAKPFLGWGGANWIAHWGQGTLVTVSS
